Experimental data from publication PMC10646045, “Multiplexed detection of viral antigen and RNA using nanopore sensing and encoded molecular probes”.

Assays:
[1] = target: SARS-CoV-2 spike protein S1 region (SARS-CoV-2, UniProt P0DTC2 13-685); assay: SPR; conditions: protein: commercial
[2] = target: SARS-CoV-2 nucleocapsid protein (SARS-CoV-2, UniProt P0DTC9 1-419); assay: SPR; conditions: protein: commercial

Row | Binder | Kd [1] [nM] | Kd [2] [nM]
1 | SBA (ssDNA) DNA: CACGCATAACGTCTTGCGGGGCGGCGGGTTGAGAGGATGTCGGGTGGTTATGCGTG | 9.86 | 
2 | NBA (ssDNA) DNA: GCTGGATGTCGCTTACGACAATATTCCTTAGGGGCACCGCTACATTGACACATCCAGC |  | 0.73
